Laboratory results reported in patent US8227408B2, “Leptin as an anti-amyloidogenic biologic and methods for delaying the onset and reducing Alzheimer's disease-like pathology” (Neurotez, Inc., priority 2005, dated 2012).

Tests used:
[1] = test system: β-secretase; assay: C99/C83 accumulation in SY5Y cells in presence of γ-secretase inhibitors (Western blot); type: cell-based, human; conditions: 5 h
[2] = test system: SY5Y cells; assay: 125I-Aβ uptake by SY5Y cells (apoE-dependent); type: cell-based, human
Protocol: Preparation of ApoE and binding with ^125I-Aβ. ApoE was isolated from the conditioned media of human embryonic kidney (HEK-293) cells stably-transfected with human apoE (having the ε3 allele or the ε4 allele) cDNA (Tezapsidis et al., FASEB J. 17:1322-1324 (2003)). These preparations, while usually poor in lipid, are fully functional for uptake experiments. ApoE then was pre-incubated with ^125I-Aβ overnight at 37° C. (Aβ/ApoE: 1/50 w/w) as described (Tezapsidis et al., FASEB J. 17:1322-1324 (2003)).
Aβ-uptake by SY5Y cells. Human ^125I-Aβ (iodinated at Tyr-10, Amersham Biosciences, IM 294) uptake was measured following addition of 0.1 nM ^125I-Aβ40 (SEQ ID NO: 4) to confluent SY5Y cells (60,000 cpm/ml) in the presence or absence of 100 ng/ml or 400 ng/ml leptin also included in a 24 h pre-incubation period. ^125I-Aβ was either added alone or was previously incubated with apoε3. In controls, Receptor Associated Protein (“RAP”, 1 μM) was added together with Aβ or the Aβ/apoE complex. RAP is an antagonist of a number of lipoprotein receptors (LaDu et al., Neurochem Int. 39:427-34 (2001)). After 24 h, the media were collected and subjected to scintillation counting for γ-Iradiation (Kang et al., 2000. J Clin Invest. 106:1159-66 (2000)). The amount of radioactivity was measured in both the trichloroacetic acid (10%) TCA pellets (representing intact Aβ) and the corresponding supernatants (representing degraded Aβ). 96.5±8.2% (mean±s.e.m., n=4 experiments, triplicate determinations) of the radioactivity found in the medium could be recovered in the TCA pellet and represented intact or oligomeric Aβ (not shown), when Aβ was pre-incubated with apoE.
The amount of TCA-precipitable radioactivity in the soluble fraction of cell lysates was compared to that in the total lysates, the ratio of which was typically about 0.8 to about 0.9 (not shown), to further verify that radioactivity was reduced in the media as a reflection of Aβ uptake by the cells, rather than due to non-specific binding to the extracellular surface of membranes or oligomerization/aggregation of Aβ.
In panel (a), Aβ uptake was measured in SY5Y cells following their treatment at 0 ng/ml, 100 ng/ml or 400 ng/ml leptin. Uptake also was measured in cells previously transfected with antisense DNA for PS1 as described (Tezapsidis et al., FASEB J. 17:1322-1324(2003)) (black). Uptake is expressed as the percentage of that observed with Aβ pre-incubated with apoε3 (medium gray) in the absence of leptin (first set of columns). […] Leptin induced a dose-dependent increase in Aβ uptake with a preference for apoε3 (medium gray) over apoε4 (light gray). In panel (b), SY5Y cells were pre-treated with […] cholesterol (+Chol) or normal medium (−Chol). Then Aβ uptake was measured following its preincubation with apoε3 (ε3) or apoε4 (ε4) in the absence (black) or the presence (gray) of about 400 ng/ml leptin. Cells were more resistant to taking-up Aβ when loaded with cholesterol. […] In panel (c), SY5Y cells were transiently transfected with SREBP-1 or SREBP-2 cDNA or an empty vector (Control). Then Aβ was measured in the medium by ELISAs (Figueiredo-Pereira et al., J Neurochem. 72:1417-22 (1999)) following treatment with (+) or without (−) leptin. […] In panel (d), Aβ uptake was measured in SY5Y cells prepared as in panel (c). Uptake was performed using Aβ/apoε3 complexes.

B1: Leptin: peptide hormone controlling adaptive metabolic mechanisms to energy availability; leptin (Harbor-UCLA) in vitro, recombinant murine leptin in mice (protein, UniProt P41160 22-167, looked up)
Leptin: VPIQKVQDDTKTLIKTIVTRINDISHTQSVSAKQRVTGLDFIPGLHPILSLSKMDQTLAVYQQVLTSLPSQNVLQIANDLENLRDLLHLLAFSKSCSLPQTSGLQKPESLDGVLEASLYSTEVVALSRLQGSLQDILQQLDVSPEC
cholesterol-induced increase in C99 ([1]; 10 μM cholesterol in the presence of 400 ng/ml leptin): abolished
C99 level ([1]; with L-685,458 (100 nM) or Z-VL-CHO (100 μM), 10 μM cholesterol or 400 ng/ml leptin alone): also was observed in the absence of cholesterol
uptake of apoE-Aβ ([2]; 100 ng/ml or 400 ng/ml leptin, 24 h pre-incubation and uptake): increased the uptake of apoE-Aβ in a dose-dependent fashion
Aβ uptake phenotype of cholesterol-loaded cells ([2]; about 400 ng/ml leptin during cholesterol pre-incubation and during uptake): almost completely reversed
